Here are results for 14 molecules from patent US10800813 (Bicycle, dated 2020).

Where two headings read alike, the source gives them in different places. Numbered stars: 1 amine (or outer) side, 2 acyl side, 3 side chain; on linkers, the order of the positions; unused ones are H or OH. Bridge positions count the residues as written; N and C are the ends. Square brackets hold non-standard residues; d marks the D form. Ends that are not written are not given here. Phe(4-guanidino) = N=C(N)Nc1ccc(C[C@H](N)C(=O)O)cc1; TBMB = c1c(C[*:1])cc(C[*:3])cc1C[*:2]; NMeR = CN[C@@H](CCCNC(=N)N)C(=O)O; hArg = N=C(N)NCCCC[C@H](N)C(=O)O; Aze = O=C(O)[C@@H]1CCN1; Abu = CC[C@H](N)C(=O)O

One experiment has as its target T1, Monkey plasma Kallikrein (monkey (Macaca mulatta), UniProt A0A1D5Q7U7 391-638).
T1 construct: domain: catalytic domain; also called mPK
The experiment can be described thus: enzyme inhibition assay.

In the next experiment the target is T2, Human factor XIa (human, UniProt P03951 19-625).
T2 construct: also called hfXIa
The experiment can be described thus: enzyme inhibition assay.

Experiment [1] addresses T3, Rat plasma Kallikrein (rat, UniProt P14272 391-638, limits assumed).
T3 construct: domain: catalytic domain; also called rPK; rat PK
Briefly: enzyme inhibition assay.

For experiment [2], the target named is T4, human plasma Kallikrein (human, UniProt P03952 20-638, limits assumed).
T4 construct: also called hPK; human PK
Briefly: enzyme inhibition assay.

The target of experiment [3] is T4, human plasma Kallikrein. The experiment can be described thus: enzyme inhibition assay. This is another data set of the same source.
Experiment [4] addresses T4, human plasma Kallikrein. The experiment can be described thus: enzyme inhibition assay. This is another data set of the same source.
Experiment [5] concerns the target T4, human plasma Kallikrein. Briefly: enzyme inhibition assay. The source holds these as a separate data set.
Experiment [6] concerns the target T4, human plasma Kallikrein. The experiment can be described thus: enzyme inhibition assay. This is another data set of the same source.
For experiment [7], the target named is T4, human plasma Kallikrein. Briefly: enzyme inhibition assay. The source holds these as a separate data set.
Experiment [8] deals with T4, human plasma Kallikrein. The experiment can be described thus: enzyme inhibition assay. This is another data set of the same source.
In experiment [9] the target is T4, human plasma Kallikrein. The experiment can be described thus: enzyme inhibition assay. This is another data set of the same source.
Experiment [10] addresses T3, Rat plasma Kallikrein. Briefly: enzyme inhibition assay; values relative, not absolute.
The target of experiment [11] is T4, human plasma Kallikrein. The experiment can be described thus: enzyme inhibition assay. This is another data set of the same source.
Experiment [12] has as its target T4, human plasma Kallikrein. The experiment can be described thus: enzyme inhibition assay. The source holds these as a separate data set.
For experiment [13], the target named is T4, human plasma Kallikrein. The experiment can be described thus: enzyme inhibition assay. The source holds these as a separate data set.
Experiment [14] deals with T4, human plasma Kallikrein. Briefly: enzyme inhibition assay. This is another data set of the same source.
The target of experiment [15] is T4, human plasma Kallikrein. Briefly: enzyme inhibition assay. The source holds these as a separate data set.
Experiment [16] deals with T3, Rat plasma Kallikrein. The experiment can be described thus: enzyme inhibition assay; values relative, not absolute. The source holds these as a separate data set.
Experiment [17] has as its target T4, human plasma Kallikrein. The experiment can be described thus: enzyme inhibition assay. The source holds these as a separate data set.
The target of experiment [18] is T4, human plasma Kallikrein. Briefly: enzyme inhibition assay. The source holds these as a separate data set.
Experiment [19] has as its target T4, human plasma Kallikrein. The experiment can be described thus: enzyme inhibition assay. This is another data set of the same source.
Another experiment addresses Human plasmin (human, UniProt P00747 97-810). The experiment can be described thus: enzyme inhibition assay.

T4 sequence (P03952 20-638 limits assumed): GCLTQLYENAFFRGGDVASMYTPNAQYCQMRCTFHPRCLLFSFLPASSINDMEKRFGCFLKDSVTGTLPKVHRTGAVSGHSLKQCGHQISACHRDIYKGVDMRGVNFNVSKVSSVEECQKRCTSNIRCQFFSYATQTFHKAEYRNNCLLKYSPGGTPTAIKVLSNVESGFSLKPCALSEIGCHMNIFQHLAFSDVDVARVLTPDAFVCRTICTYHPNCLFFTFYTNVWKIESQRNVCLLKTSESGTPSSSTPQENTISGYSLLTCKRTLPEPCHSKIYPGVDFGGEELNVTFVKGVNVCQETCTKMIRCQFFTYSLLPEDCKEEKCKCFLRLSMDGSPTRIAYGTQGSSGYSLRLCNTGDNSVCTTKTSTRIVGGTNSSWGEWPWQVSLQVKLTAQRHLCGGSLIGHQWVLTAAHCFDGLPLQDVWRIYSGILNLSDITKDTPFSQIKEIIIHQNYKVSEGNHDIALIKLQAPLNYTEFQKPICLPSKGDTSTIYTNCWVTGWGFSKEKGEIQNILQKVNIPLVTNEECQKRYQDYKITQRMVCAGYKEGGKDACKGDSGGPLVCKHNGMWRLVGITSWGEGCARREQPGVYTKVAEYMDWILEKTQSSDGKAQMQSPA
T3 sequence (P14272 391-638 limits assumed): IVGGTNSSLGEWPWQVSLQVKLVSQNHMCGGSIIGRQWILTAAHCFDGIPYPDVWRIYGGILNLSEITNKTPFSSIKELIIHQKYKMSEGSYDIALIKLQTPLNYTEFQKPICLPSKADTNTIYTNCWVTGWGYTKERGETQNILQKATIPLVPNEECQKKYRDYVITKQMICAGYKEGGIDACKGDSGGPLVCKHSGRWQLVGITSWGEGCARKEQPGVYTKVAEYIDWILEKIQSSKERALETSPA
T1 sequence (A0A1D5Q7U7 entry or part of it): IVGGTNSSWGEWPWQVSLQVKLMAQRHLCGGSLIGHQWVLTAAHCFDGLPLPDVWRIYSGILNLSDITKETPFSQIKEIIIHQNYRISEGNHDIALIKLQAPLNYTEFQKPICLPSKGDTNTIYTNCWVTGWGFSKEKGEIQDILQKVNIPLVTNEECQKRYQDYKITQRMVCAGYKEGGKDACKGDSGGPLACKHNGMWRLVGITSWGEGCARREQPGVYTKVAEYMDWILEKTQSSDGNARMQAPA
Chain of Human plasmin (P00747 97-810 limits assumed): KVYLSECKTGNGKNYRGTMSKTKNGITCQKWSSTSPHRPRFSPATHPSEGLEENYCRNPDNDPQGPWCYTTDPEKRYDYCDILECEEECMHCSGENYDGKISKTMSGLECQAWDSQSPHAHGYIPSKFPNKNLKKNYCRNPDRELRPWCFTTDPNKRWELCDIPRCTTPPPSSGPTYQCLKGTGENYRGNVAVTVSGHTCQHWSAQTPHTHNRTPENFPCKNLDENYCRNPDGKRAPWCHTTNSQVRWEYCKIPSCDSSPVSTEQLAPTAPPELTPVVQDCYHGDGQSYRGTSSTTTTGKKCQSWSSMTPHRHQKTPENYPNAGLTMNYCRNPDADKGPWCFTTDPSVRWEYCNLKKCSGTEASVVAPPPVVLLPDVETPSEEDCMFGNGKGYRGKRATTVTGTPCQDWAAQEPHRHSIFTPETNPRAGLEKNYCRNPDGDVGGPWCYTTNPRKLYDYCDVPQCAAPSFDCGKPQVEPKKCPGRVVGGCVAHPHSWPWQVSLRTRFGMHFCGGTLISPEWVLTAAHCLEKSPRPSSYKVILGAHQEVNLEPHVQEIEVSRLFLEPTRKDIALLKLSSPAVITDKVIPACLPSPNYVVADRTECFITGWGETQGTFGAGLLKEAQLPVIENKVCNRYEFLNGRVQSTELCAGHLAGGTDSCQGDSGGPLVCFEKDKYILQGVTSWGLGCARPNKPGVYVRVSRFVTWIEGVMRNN

The term Ki denotes a dissociation constant, usually derived from enzyme kinetics or from competition with a known ligand. For ACFKHCRVACA (linker 2-6-10 via TBMB, also called PK123) [3B8], the inhibitory constant (Ki) with Monkey plasma Kallikrein turned out to be 9 nM; in the experiment with Human factor XIa, 52 nM; with Rat plasma Kallikrein [1] it was 12 nM; with human plasma Kallikrein [2], 7 nM; in the experiment with human plasma Kallikrein [3], 0.95 nM.
Ac-CSW[Aze][Abu][hArg]CLHQDLC-NH2 (linker 1-7-13 via TBMB) [Ac-(06-34-18) Aze3 Aba4 HomoArg5] registered a Ki with human plasma Kallikrein [4] of 0.9 nM.
Same read-out and setting: to Ac-CSW[Aze][Abu][Phe(4-guanidino)]CLHQDLC-NH2 (linker 1-7-13 via TBMB) [Ac-(06-34-18) Aze3 Aba4 4GuanPhe5] belongs 0.2 nM.
On to H-ACSDRFRNCPADEALCG-NH2 (linker 2-9-16 via TBMB, 6x6 bicyclic peptide) [PK15], for which the inhibition constant Ki with Monkey plasma Kallikrein is 4 nM; with Human factor XIa, 75000 nM; with Rat plasma Kallikrein [1], 941 nM; with human plasma Kallikrein [2] it was 3 nM.
For ACFKACRVNCA (linker 2-6-10 via TBMB, also called PK117) [3B3], the Ki with Monkey plasma Kallikrein came out at 11 nM; in the experiment with Human factor XIa, 57 nM; in the experiment with Rat plasma Kallikrein [1] it was 24 nM.

B1: Ac-06-34-18(TMB)-NH2 (peptide)
peptide: Ac-CSWPARCLHQDLC-NH2
modifications: linker 1-7-13 via TBMB
SMILES: CC(=O)N[C@H]1CSCc2cc3cc(c2)CSC[C@H](NC(=O)[C@H](CCCNC(=N)N)NC(=O)[C@H](C)NC(=O)[C@@H]2CCCN2C(=O)[C@H](Cc2c[nH]c4ccccc24)NC(=O)[C@H](CO)NC1=O)C(=O)N[C@@H](CC(C)C)C(=O)N[C@@H](Cc1c[nH]cn1)C(=O)N[C@@H](CCC(N)=O)C(=O)N[C@@H](CC(=O)O)C(=O)N[C@@H](CC(C)C)C(=O)N[C@H](C(N)=O)CSC3
notes: also called Ac-(06-34-18) wildtype; Ac-(06-34-18) WPAR
What is called IC50 is the point on the concentration scale where inhibition reaches its midpoint. B1: the Ki with human plasma Kallikrein [5], in the experiment with human plasma Kallikrein [6], in the experiment with human plasma Kallikrein [7], with human plasma Kallikrein [8], with human plasma Kallikrein [9] and in the experiment with human plasma Kallikrein [4] was 0.17 nM throughout. For the same molecule, the inhibition constant (Ki) with human plasma Kallikrein [11], in the experiment with human plasma Kallikrein [12], in the experiment with human plasma Kallikrein [13] and with human plasma Kallikrein [14] was 0.17 nM in each case. Also, in the experiment with Rat plasma Kallikrein [10], the IC50 stood at 1.7 nM.

B2: Ac-(06-34-18) Phe2 Tyr4 4GuanPhe5 (peptide)
peptide: Ac-CSFPY[Phe(4-guanidino)]CLHQDLC-NH2
modifications: linker 1-7-13 via TBMB
SMILES: CC(=O)N[C@H]1CSCc2cc3cc(c2)CSC[C@H](NC(=O)[C@H](Cc2ccc(NC(=N)N)cc2)NC(=O)[C@H](Cc2ccc(O)cc2)NC(=O)[C@@H]2CCCN2C(=O)[C@H](Cc2ccccc2)NC(=O)[C@H](CO)NC1=O)C(=O)N[C@@H](CC(C)C)C(=O)N[C@@H](Cc1c[nH]cn1)C(=O)N[C@@H](CCC(N)=O)C(=O)N[C@@H](CC(=O)O)C(=O)N[C@@H](CC(C)C)C(=O)N[C@H](C(N)=O)CSC3
Regarding B2, the inhibition constant Ki with human plasma Kallikrein [15] amounted to 0.4 nM. The same molecule returned an IC50 with Rat plasma Kallikrein [16] of 2.5 nM.

B3: Ac-06-34-18(TMB)-NH2 Phe2Tyr4 (peptide)
peptide: Ac-CSFPYRCLHQDLC-NH2
modifications: linker 1-7-13 via TBMB
SMILES: CC(=O)N[C@H]1CSCc2cc3cc(c2)CSC[C@H](NC(=O)[C@H](CCCNC(=N)N)NC(=O)[C@H](Cc2ccc(O)cc2)NC(=O)[C@@H]2CCCN2C(=O)[C@H](Cc2ccccc2)NC(=O)[C@H](CO)NC1=O)C(=O)N[C@@H](CC(C)C)C(=O)N[C@@H](Cc1c[nH]cn1)C(=O)N[C@@H](CCC(N)=O)C(=O)N[C@@H](CC(=O)O)C(=O)N[C@@H](CC(C)C)C(=O)N[C@H](C(N)=O)CSC3
notes: also called Ac-(06-34-18) FPYR; Ac-(06-34-18) Phe2 Tyr4
Take B3: the inhibition constant (Ki) with human plasma Kallikrein [17], with human plasma Kallikrein [5] and with human plasma Kallikrein [15] was 0.46 nM throughout. In addition, the IC50 with Rat plasma Kallikrein [16] came out at 13.8 nM.

B4: Ac-(06-34-18) Phe2 Tyr4 HomoArg5 (peptide)
peptide: Ac-CSFPY[hArg]CLHQDLC-NH2
modifications: linker 1-7-13 via TBMB
SMILES: CC(=O)N[C@H]1CSCc2cc3cc(c2)CSC[C@H](NC(=O)[C@H](CCCCNC(=N)N)NC(=O)[C@H](Cc2ccc(O)cc2)NC(=O)[C@@H]2CCCN2C(=O)[C@H](Cc2ccccc2)NC(=O)[C@H](CO)NC1=O)C(=O)N[C@@H](CC(C)C)C(=O)N[C@@H](Cc1c[nH]cn1)C(=O)N[C@@H](CCC(N)=O)C(=O)N[C@@H](CC(=O)O)C(=O)N[C@@H](CC(C)C)C(=O)N[C@H](C(N)=O)CSC3
B4 gave a Ki in the experiment with human plasma Kallikrein [15] of 0.77 nM. Moreover, in the experiment with Rat plasma Kallikrein [16], the IC50 stood at 19.7 nM.

B5: Ac-(06-34-18) Phe2 Tyr4 NMeArg5 (peptide)
peptide: Ac-CSFPY[NMeR]CLHQDLC-NH2
modifications: linker 1-7-13 via TBMB
SMILES: CC(=O)N[C@H]1CSCc2cc3cc(c2)CSC[C@H](NC(=O)[C@H](CCCNC(=N)N)N(C)C(=O)[C@H](Cc2ccc(O)cc2)NC(=O)[C@@H]2CCCN2C(=O)[C@H](Cc2ccccc2)NC(=O)[C@H](CO)NC1=O)C(=O)N[C@@H](CC(C)C)C(=O)N[C@@H](Cc1c[nH]cn1)C(=O)N[C@@H](CCC(N)=O)C(=O)N[C@@H](CC(=O)O)C(=O)N[C@@H](CC(C)C)C(=O)N[C@H](C(N)=O)CSC3
In turn, B5 registered an inhibition constant Ki in the experiment with human plasma Kallikrein [15] of 3.56 nM. The same molecule had an IC50 in the experiment with Rat plasma Kallikrein [16] of 60.2 nM.

B6: Ac-(06-34-18) NMeArg5 (peptide)
peptide: Ac-CSWPA[NMeR]CLHQDLC-NH2
modifications: linker 1-7-13 via TBMB
SMILES: CC(=O)N[C@H]1CSCc2cc3cc(c2)CSC[C@H](NC(=O)[C@H](CCCNC(=N)N)N(C)C(=O)[C@H](C)NC(=O)[C@@H]2CCCN2C(=O)[C@H](Cc2c[nH]c4ccccc24)NC(=O)[C@H](CO)NC1=O)C(=O)N[C@@H](CC(C)C)C(=O)N[C@@H](Cc1c[nH]cn1)C(=O)N[C@@H](CCC(N)=O)C(=O)N[C@@H](CC(=O)O)C(=O)N[C@@H](CC(C)C)C(=O)N[C@H](C(N)=O)CSC3
Consider B6, for which the Ki with human plasma Kallikrein [9] and in the experiment with human plasma Kallikrein [14] was 3.5 nM in each case. Further, the “fold reduction in affinity against wildtype peptide” value in the experiment with human plasma Kallikrein [18] worked out at 20 fold. This molecule registered an IC50 in the experiment with Rat plasma Kallikrein [10] of 98 nM.
With Ac-CSW[Aze][Abu][NMeR]CLHQDLC-NH2 (linker 1-7-13 via TBMB) [Ac-(06-34-18) Aze3 Aba4 NMeArg5], the Ki with human plasma Kallikrein [4] was found to be 2.8 nM.

B7: Ac-(06-34-18) 4GuanPhe5 (peptide)
peptide: Ac-CSWPA[Phe(4-guanidino)]CLHQDLC-NH2
modifications: linker 1-7-13 via TBMB
SMILES: CC(=O)N[C@H]1CSCc2cc3cc(c2)CSC[C@H](NC(=O)[C@H](Cc2ccc(NC(=N)N)cc2)NC(=O)[C@H](C)NC(=O)[C@@H]2CCCN2C(=O)[C@H](Cc2c[nH]c4ccccc24)NC(=O)[C@H](CO)NC1=O)C(=O)N[C@@H](CC(C)C)C(=O)N[C@@H](Cc1c[nH]cn1)C(=O)N[C@@H](CCC(N)=O)C(=O)N[C@@H](CC(=O)O)C(=O)N[C@@H](CC(C)C)C(=O)N[C@H](C(N)=O)CSC3
In the case of B7, the Ki with human plasma Kallikrein [9] was 0.34 nM; with human plasma Kallikrein [11], 0.3 nM. The molecule further came in with an IC50 in the experiment with Rat plasma Kallikrein [10] of 21 nM.
Consider ACTYPYKCLHQNLCA (linker 2-8-14 via TBMB, also called PK112) [2A10], for which the Ki was determined as 4.98 nM in the experiment with human plasma Kallikrein [19]; 30000 nM with Human plasmin; 23 nM in the experiment with Monkey plasma Kallikrein; 66 nM in the experiment with Rat plasma Kallikrein [1]; 18 nM in the experiment with human plasma Kallikrein [2].
